# Laboratory results taken from patent US20050112698A1 (Bayer, published 2005).
# What was measured:
# human Stem Cell Factor [1] = target: T1, human Stem Cell Factor (human, UniProt P21583 26-189); assay: cell-based or functional assay
# human Stem Cell Factor [2] = target: T1, human Stem Cell Factor; assay: BIAcore, Affinity Estimation, Fab
# human Stem Cell Factor [3] = target: T1, human Stem Cell Factor; assay: cell-based or functional assay; remark: listed apart in the source
# Cynomolgus Monkey SCF [4] = target: T2, Cynomolgus Monkey SCF (cynomolgus monkey, UniProt A0A7N9CAX5 26-189); assay: cell-based or functional assay
# human Stem Cell Factor [5] = target: T1, human Stem Cell Factor; assay: cell-based or functional assay; remark: listed apart in the source
# human Stem Cell Factor [6] = target: T1, human Stem Cell Factor; assay: BIAcore, Fab on immobilized SCF
# Cynomolgus Monkey SCF [7] = target: T2, Cynomolgus Monkey SCF; assay: cell-based or functional assay; remark: listed apart in the source
# Cynomolgus Monkey SCF [8] = target: T2, Cynomolgus Monkey SCF; assay: SPR BIAcore, 5000 RU immobilized cSCF, off-rate ranking
# Procedure: (§1) TABLE 12 Sequences of the CDR3 Vk1 Region of Selected Antibody Clones with Comparison of koff and SCF Inhibitory Activity The off-rates were determined using a high density surface CM5 chip (5000 RU of immobilized cSCF) on BIAcore and are shown with comparison to the original A2-G8 clone. […] The IC₅₀ in the TF-1 proliferation assay was based on an average of two assays with the exception of the A2-G8-IgG (n = 5).
# Analysis of Fab binding to cSCF was performed by surface plasmon resonance using a BIAcore 2000 (Biacore, Piscataway, N.J.), according to the manufacturer's instructions and a CM5 chip (Biacore) coated with cSCF. For amine coupling, a research grade CM5 chip was activated using the standard NHS/EDC procedure. Cynomologus monkey SCF was diluted to 20 μg/ml in 10 mM NaAcetate, pH 5.0, and a total of 5000 RU's were coupled to channel 2 of the sensor surface. The remaining active sites were quenched by the addition of 1M ethanolamine, pH 8.0. Channel 1 was subjected to the coupling procedure in the absence of protein and was used as a reference surface. Extracts were diluted 1/5 in HBS-EP running buffer and injected for 2 min using a flow rate of 20 μl/min. The surface was regenerated by two consecutive injections of 25 μl, 10 mM glycine, pH 2.5, using a flow rate of 100 μl/min. The koff was calculated from a single concentration of Fab using BIAevaluation software (Biacore).
# Cynomolgus Monkey SCF [9] = target: T2, Cynomolgus Monkey SCF; assay: competition ELISA: cSCF binding to coated human SCFR, Fab 3.1 µg/ml
# Procedure: The extracts containing Fab were also tested for the ability to inhibit SCF binding to the SCF receptor. ELISA plates were coated overnight with 2 μg/ml human SCFR (R&D Systems, Minneapolis, Minn.) in PBS at 4° C. After washing with TBS-T, the plate was blocked with 5 mg/ml BSA in PBS. The extract was diluted 1/5 in PBS buffer containing 12.5 ng/ml cSCF and 1 mg/ml BSA. After a 1 hr incubation at room temperature, 100 μl was added to the blocked ELISA plate and incubated an additional hour. The plate was washed 5 times with TBS-T, and 100 μl of a 0.4 μg/ml solution of anti-SCF (R&D Systems) in 1 mg/ml BSA in PBS was added. After 1 hour the plate was washed and incubated with anti-Mouse-HRP (Sigma, St. Louis, Mo.). The plate was developed with BM Blue POD substrate (Roche Diagnostics, Chicago, Ill.) and read at 370 nm.
# as §1
# T1 sequence (P21583 other isoform, or with tags, fused parts or gaps limits assumed): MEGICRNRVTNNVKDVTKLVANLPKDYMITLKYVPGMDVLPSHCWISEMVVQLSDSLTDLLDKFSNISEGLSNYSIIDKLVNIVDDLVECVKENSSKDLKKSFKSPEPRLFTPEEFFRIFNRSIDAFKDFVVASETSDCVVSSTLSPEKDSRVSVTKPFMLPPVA
binder,measurement,setting,value
"Fab A2-A1 (Fab, V domains shown) VH: not shown VL: DIQMTQSPSSLSASVGDRVTITCRASQGISSYLAWYQQKPGKAPKLLIYAASSLQSGVPSRFSGSGSGTDFTLTISSLQPEDFATYYCQQYSGMPYTFGQGTKVEIK",TF-1 Fab assay IC50,human Stem Cell Factor [1],25 µg/mL
same,Kd,human Stem Cell Factor [2],57 nM
"Fab A2-E8 (Fab, V domains shown) VH: not shown VL: DIQMTQSPSSLSASVGDRVTITCRASQGIFKYLAWYQQKPGKAPKLLIYAASSLQSGVPSRFSGSGSGTDFTLTISSLQPEDFATYYCQQYSGMPYTFGQGTKVEIK",TF-1 Fab assay IC50,human Stem Cell Factor [1],8 µg/mL
same,Kd,human Stem Cell Factor [2],17 nM
"Fab A2-H8 (Fab, V domains shown) VH: not shown VL: DIQMTQSPSSLSASVGDRVTITCRASQGIIGYLGWYQQKPGKAPKLLIYRASSLQSGVPSRFSGSGSGTDFTLTISSLQPEDFATYYCQQYSGMPYTFGQGTKVEIK",TF-1 Fab assay IC50,human Stem Cell Factor [1],25 µg/mL
same,Kd,human Stem Cell Factor [2],44 nM
"Fab A2-D12 (Fab, V domains shown) VH: not shown VL: DIQMTQSPSSLSASVGDRVTITCRASQGIWLYLSWYQQKPGKAPKLLIYAASSLQSGVPSRFSGSGSGTDFTLTISSLQPEDFATYYCQQYSGMPYTFGQGTKVEIK",Kd,human Stem Cell Factor [2],18 nM
"Fab A8 (first screen, Vλ1) (Fab, V domains shown, It carries FLAG and Strep tags) VH: not shown VL: DIVLTQPPSVSGAPGQRVTISCSGSSSNIGSNYVSWYQQLPGTAPKLLIYDNNQRPSGVPDRFSGSKSGTSASLAITGLQSEDEADYYCQSRDHYVVRWVFGGGTKLTVL",percent inhibition of SCF-induced TF-1 proliferation at 200 ug/ml Fab,human Stem Cell Factor [3],> 100%
same,percent inhibition of SCF-induced TF-1 proliferation at 200 ug/ml Fab,Cynomolgus Monkey SCF [4],> 100%
same,"Efficacy IC50 (TF-1 proliferation assay, Fab)",human Stem Cell Factor [5],30 µg/mL
same,Kd,human Stem Cell Factor [6],9.7 nM
"Fab A8 (light chain CDR3 variant of A2-G8) (Fab, V domains shown, It carries FLAG and Strep tags) VH: not shown VL: QMTQSPSSLSASVGDRVTITCRASQGIRGYLGWYQQKPGKAPKLLIYSASSLQSGVPSRFSGSGSGTDFTLTISSLQPEDFATYYCCSAGFMPYTFGQGTKVEIKR",IC50 TF-1 cynoSCF Assay,Cynomolgus Monkey SCF [7],4.64 µg/mL
same,koff,Cynomolgus Monkey SCF [8],0.00075 s⁻¹
same,% Inhibition SCF Binding ELISA Assay,Cynomolgus Monkey SCF [9],70%
